Measurements reported in the nanobody polyreactivity screen of Harvey et al. (2022).

assay: yeast display, Sf9 membrane polyspecificity reagent, FACS + sequencing; frameworks hold sequencing errors
Procedure, shortened: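 Sorting gates, low and high (top ~1%), were placed on anti-HA fluorescence to track expression and on streptavidin fluorescence to track reagent binding. A clone's polyreactivity label is taken from the gate it came out of. The reagent was 10% biotinylated, detergent-solubilized Sf9 membrane, applied for 1 hour at 4 °C to galactose-induced yeast display cells.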

Row | Sequence | polyreactivity (PSR sort gate)
1 | QVQLVESGGGLVQAGGSLRLSCAASGRIFDYNSMGWSRPAPGKDRELVASITQRGDIPYYADSVKGRFTSSRDNAKNTVFLQMNSLNPDETAVYYGNADGVLVWVLPYVLYTGDYWGQGTQVTVSS | low polyreactivity
2 | QVQLVESGGGLVQAGGSLRLSCAASGRIFDYNVMGWYRQAPGKERELVAGISSGGSTYYADSVKGRFTISRDNAKNTVYLQMNSLKPEDTEVYYCAARGRPYRGYGYWGQGTQVTVSS | high polyreactivity
3 | QVQLVESGGGLVQAGGSLRLSCAASGRIFDYYAMGWYRQAPGKERELVARITSGGTTNYADSVKGRFTISRDNAKNTVYLQMNSLKPEDTAVYYCNAQDYSDPLQMDYWGQGTQVTVSS | low polyreactivity
4 | QVQLVESGGGLVQAGGSLRLSCAASGRIFDYYAMGWYRQAPGKERELVASISRSGGSTYYADSVKGRFTISRDNAKNTVYLQMNSLKPEDTAVYYCAARRGYYYGRVGYWGQGTQVTVTS | high polyreactivity
5 | QVQLVESGGGLVQAGGSLRLSCAASGRIFDYYTMGWYRQAPGKERELVAAINWSGGSTYYADSVKGRITISRDKAKNTVYLQMNSLKPEDTAVYYCATLSYGREYGYWGQGTQVTVSS | low polyreactivity
6 | QVQLVESGGGLVQAGGSLRLSCAASGRIFDYYTMGWYRQAPGKERELVAAISVRGGSTYYADSVKGRFTNSRDNAKNTVYLQMNSLKPEDTAVYYCAARSWRHRTYYYWGQGTQVTVSS | high polyreactivity
7 | QVQLVESGGGLVQAGGSLRLSCAASGRIFEEYVMGWYRQAPGKERELVAAISFSGSRTYADSVKGRFTISRDNAKNTVYLQMNSLKPEDTAVYYCAADPSISYDYWGQGTQVTVSS | low polyreactivity
8 | QVQLVESGGGLVQAGGSLRLSCAASGRIFEGYAMGWYRQAPGKEELVAAITSDASTYYADSVKGRFTISRDNAKNTVYLQMNSLKPEDTAVYYCAADTYDNDYYYWGQGTQVTVSS | high polyreactivity
9 | QVQLVESGGGLVQAGGSLRLSCAASGRIFEPYAMGWYRQAPGKERELFAAITSGGSTDYADSVKGRFTISRDNAKNTVYLQMNSLKPEDTAVYYCAARVTYGGIPARQIYDYWGQGTQVTVSS | low polyreactivity
10 | QVQLVESGGGLVQAGGSLRLSCAASGRIFERYAMGWYRQAPGKERELVAAISWSGGSTYYADSVKGRFTISRDNAKNTVYLQMNSLKPEDTAVYYCAARKYRSFRQRTGDYWGQGTQVTVSS | high polyreactivity
11 | QVQLVESGGGLVQAGGSLRLSCAASGRIFEVYAMGWYRQAPGKERELVARISDGGGSTYYADSVKGRFTISRDNAKNTVYLQMNSLKPEDTAVYYCAAGGDLRLDRRFAFVSRGDYWGQGTQVTVSS | low polyreactivity
12 | QVQLVESGGGLVQAGGSLRLSCAASGRIFFENTMGWYRQAPGKERELVAAISSSGTTNYADSVKGRFTISRDNAKNTVYLQMNSLKPEDTAVYYCNAVLHGEQVGKYIAYVYWGQGTQVTVAS | low polyreactivity
13 | QVQLVESGGGLVQAGGSLRLSCAASGRIFFGNTMGWSRQAPGKERELVAVIDRSGGTTYYADSVKGRFTSSRDNAKNTVYLQMNSLKPEDTAVYYCAAIRRQKGLWDYYYWGQGTQVTVST | low polyreactivity
14 | QVQLVESGGGLVQAGGSLRLSCAASGRIFFKYAMGWYRQAPGKERELVAAISSSGGRTSYADSVKGRFTISRDNAKNTVYLQMNSLKPEDTAVYYCNVKPSARGSPLYDYWGQGTQVTVSS | high polyreactivity
15 | QVQLVESGGGLVQAGGSLRLSCAASGRIFFLYAMGWYRQAPGKERELVAAITKSGGSTYADSVKGRFTISLDNAKNTVYLQMNSLKPVDTAVYYCATENTECRDSGYIVKYGSDYWGQGTQVTVSS | low polyreactivity
16 | QVQLVESGGGLVQAGGSLRLSCAASGRIFFNYAMGWYRQAPGKERELVAAIRGGGSTYADSVKGRFTISCDNAKNTVYLQMNSLKPEDTAVYYCAARYSGSPYHTRRYYYWGQGTQVTVSS | high polyreactivity

Row | Sequence | polyreactivity (PSR sort gate)
17 | QVQLVESGGGLVQAGGSLRLSCAASGRIFFPYAMGWYRQAPGKERELVAAINYSGGSTYYADSVKGRFTISRDNAKYTVYLQMNSLKPEDTAVYYCAKEYGKAYDYWGQGTLVTVSS | high polyreactivity
18 | QVQLVESGGGLVQAGGSLRLSCAASGRIFFRNAMGWYRQAPGKDRELVAAITWNGGSTYYADSVKGRFTISRDNAKNTVYLQMNSLKPEDTAVYYCATKTLSRTRTYYYWGQCTQVTVSS | high polyreactivity
19 | QVQLVESGGGLVQAGGSLRLSCAASGRIFFRNAMGWYRQAPGKERELVAAISKSGTRTYYADSVKGRFTISRDNAKNTVYLQMHSLKPEDTAVYYCNALLRDCGTYAGDDYWGQGTQVTVSS | high polyreactivity
20 | QVQLVESGGGLVQAGGSLRLSCAASGRIFFRYAMGWYIQAPGKEREFVAAISGSAGSTYYADSVKGRFKISRDNAKNTVYLQMNSLKPEDTAVYYCAARKAKVSNGLKYDYWGQGTQVTVSS | low polyreactivity
21 | QVQLVESGGGLVQAGGSLRLSCAASGRIFFRYDLGWYRQAPGKERELVAAISGGDRTSYADSVKGRFTISRDNAKITVYLQMNSLKPEDTAVYYCAGKRRSGEYYYWGQGTQVTVSS | low polyreactivity
22 | QVQLVESGGGLVQAGGSLRLSCAASGRIFFSNAMGWYRQAPGKERELVASITGGDDTNYADSVKGRFTISRDNAKNTVYLQMNSLKPEDTAVYYCAARAIPSYRWVYRFAPKYDYWGQGTQVTVSS | low polyreactivity
23 | QVQLVESGGGLVQAGGSLRLSCAASGRIFFSTVMGWDRQAPGKERELVAAISWSGGSTYYADSVKGRFTISRDNAKNTVYLQMNSLKPEDTAVYYCNRLSASVQYGYWGQGTQVTVSS | high polyreactivity
24 | QVQLVESGGGLVQAGGSLRLSCAASGRIFFTNAMGWYTQAPGKERELVAAISKSGARTYYADSVKGRFTISRDNAKNTVYLLMNSLKPEDTAVYYCAADVCVYGYDYWGQGTQVTVSS | high polyreactivity
25 | QVQLVESGGGLVQAGGSLRLSCAASGRIFFTYVMGWYRQAPGKERELVATIRVSGGSTYYADSVKGRFTISRDNAKNTVYLQMNSLKPEDTAVYYCAASGASWSLHYAGDYWGQGTQVTVSS | high polyreactivity
26 | QVQLVESGGGLVQAGGSLRLSCAASGRIFFVYAMGWYRQAPGKERELVAAISVSDVSTSYADSVKGRFTISRDNAKNTVYLQMNSLKPEDTAVYYFNAGFRFYTYSRIAGEDYGGQGTQVTVSS | low polyreactivity
27 | QVQLVESGGGLVQAGGSLRLSCAASGRIFFVYAMGWYRQAPGKERELVAHIPSGGSTSYADSVKGRFTISRDNAKNTDYLQMNSLKPEDTAVYSCAARYLGYIYVYYHYTDDYWGQGTQVTVSS | low polyreactivity
28 | QVQLVESGGGLVQAGGSLRLSCAASGRIFFVYAMGWYRQAPGKERELVASITGGGSTNYADSVKGRFTISRDNAKNTVYLQMNSLKPEDTAVYYCGADIHSTRVFPEYPSGYDYWGQGTQVTVSS | low polyreactivity
29 | QVQLVESGGGLVQAGGSLRLSCAASGRIFFWNALGWYRQAPGKEREFVATISWNDAITYYADSVKGRFTISRDNAKNTVYLQMNSLKPEDTAVYYCNVDPKIVFSFGYDYWGQGTQVTVSS | low polyreactivity
30 | QVQLVESGGGLVQAGGSLRLSCAASGRIFFYAMGWYRQAPGKERELVASITTSGTSTYYADSVKGRFTISRDNAKNTVYLQMNSLKPEDTAVYYCNARVRYTVGPLSSLDGEYWGQGTQVTVSS | low polyreactivity
31 | QVQLVESGGGLVQAGGSLRLSCAASGRIFFYNAMGWYRQAPGKERELVAAIDSGSSTYYADSVKGRFTISRDNAKNTVYLQMTSLKPEDTAVYYCAADGRRWYTEYDYWGQGTQVTVSS | low polyreactivity
